Substrate in this data set: CCCCCCCCCCCCCCCC(=O)Oc1ccc([N+](=O)[O-])cc1
As to the kind of experiment: p-nitrophenol release, Lineweaver-Burk. As to conditions: emulsified substrate, 40°C, pH 8.5, printed Km unit is a misprint, printed kcat/Km 6.22 × 10^4 M^-1 s^-1 implies mM. The data set is classed as biochemical, Rhizopus microsporus. An excerpt:
p-nitrophenol release, Lineweaver-Burk on r27RCL

B1: r27RCL (Rhizopus microsporus var. chinensis) (protein)
chain: DTETVGGMTLDLPENPPPIPATSTAPSSDSGEVVTATAAQIKELTNYAGVAATAYCRSVVPGTKWDCKQCLKYVPDGKLIKTFTSLLTDTNGFILRSDAQKTIYVTFRGTNSFRSAITDMVFTFTDYSPVKGAKVHAGFLSSYNQVVKDYFPVVQDQLTAYPDYKVIVTGHSLGGAQALLAGMDLYQREKRLSPKNLSIYTVGCPRVGNNAFAYYVDSTGIPFHRTVHKRDIVPHVPPQAFGYLHPGVESWIKEDPADVQICTSNIETKQCSNSIVPFTSIADHLTYFGINEGSCL
notes: proRCL gene in pPIC9K, secreted from Pichia pastoris GS115, purified on SP-Sepharose and Phenyl-Sepharose
For orientation: kcat means the number of substrate molecules converted per active site and unit of time at saturation. One may read the kcat/Km as the second-order rate constant that governs catalysis at low substrate concentration. Take B1: the kcat turned out to be 18.9 s⁻¹ and the catalytic efficiency (kcat/Km) worked out at 62200 M⁻¹ s⁻¹.

For the origin of these results see article PMC3503730, “Enhanced thermostability of a Rhizopus chinensis lipase by in vivo recombination in Pichia pastoris” (Microbial Cell Factories, 2012).
